“And” between values parts separate entries of the source, which are not always exact repeats. Identical values can stand only once.

For the assay, the target named is T1, human TACI (transmembrane activator and CAML interactor, TNFRSF13B) on Tregs, iTregs and Bregs (human) (UniProt O14836).
T1 sequence: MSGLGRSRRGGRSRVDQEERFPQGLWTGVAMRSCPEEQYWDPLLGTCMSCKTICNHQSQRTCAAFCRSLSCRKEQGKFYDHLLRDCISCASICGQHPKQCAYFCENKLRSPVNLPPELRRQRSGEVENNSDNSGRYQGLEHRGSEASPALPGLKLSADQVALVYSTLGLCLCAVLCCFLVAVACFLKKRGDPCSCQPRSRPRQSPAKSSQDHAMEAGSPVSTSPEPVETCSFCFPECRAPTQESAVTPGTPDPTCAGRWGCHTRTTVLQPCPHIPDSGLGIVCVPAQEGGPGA
Kind of assay: cell-based or functional assay.

Consider “recombinant human APRIL (a proliferation-inducing ligand) (from UniProt O75888 105-250)”, for which the fold increase of MM cell-induced iTreg in CD4 T cells, against control media is > 1.5 fold and 1.5 to 4 fold; the percent Breg (CD19+CD24highCD38high) in B cells of MM patient BMMCs came out at 25.2%; the percent IL-10 production in Bregs of MM patient BMMCs was 29.2%; the percent proliferative iTreg (CTV-Foxp3+) in cocultures with U266 MM cells, representative experiment was found to be 13.4%. The same substance had a percent proliferative iTreg (CTV-Foxp3+) in cocultures with U266 MM cells, three experiments of 11.3% and a percent proliferative iTreg (CTV-Foxp3+CD4+) in cocultures with U266 MM cells, additional representative experiment of 8.02%.

Source of the values: patent US20210113605A1.
